Assay results as given in patent US20250243277A1 (AVACTA LIFE SCIENCES, published 2025).
Changes are numbered by the printed parent chain. Read-outs that look alike come from different tables or passages of the source.

Columns and labels:
human PD-L1 on CHO cells [1] = biological target: T1, human PD-L1 on CHO cells (human, UniProt Q9NZQ7 19-290); assay: cell-based or functional assay
human PD-L1 on CHO cells [2] = biological target: T1, human PD-L1 on CHO cells; assay: cell-based or functional assay; remark: listed apart in the source
[3] = biological target: T2, human PD-L1-Fc (R&D Systems) (human, UniProt Q9NZQ7 19-239); assay: PD-1/PD-L1 competitive ELISA, average n = 2; competitor PD-1-Fc coated
T2 construct: Bought from R&D Systems; Biotinylated in-house for the phage selection; also called huPD-L1-Fc; human PD-L1-Fc antigen; not shown: Fc part of the bought fusion
Procedure: (§1) The competitive inhibition of AFFIMER® multimers was evaluated by enzyme linked immunosorbent assay (ELISA). Human PD-1-Fc (R&D Systems) was coated at 0.5 μg/ml on the plate. Plates were washed two times with […] of washing buffer (PBS, Tween 20 0.1%) with a plate washer and saturated with Casein 5% (Sigma) in PBS for 90 minutes at room temperature (25±1° C.). Plates were subsequently washed. AFFIMER® polypeptides and controls (human PD-1-Fc; R&D Systems or blank) were then diluted in duplicate, and preincubated with huPD-L1-Fc (R&D Systems) at a predefined concentration equivalent to the EC₈₀ for 30 minutes then loaded on the plate for 90 minutes at room temperature (25±1° C.). Plates were washed 3 times. Biotinylated polyclonal antibody anti-human PD-L1 (R&D Systems) was then diluted in dilution buffer and incubated 90 minutes at room temperature (25±1° C.). Plates were washed 3 times and Streptavidin HRP was incubated for 30 minutes at room temperature (25±1° C.). Plates were washed and the substrate (TMB; Pierce Thermo-Scientific) added to the plate for 10 minutes. The reaction was stopped using an acidic solution and plates were read at absorbance 450-630 nm. The IC₅₀ was then calculated using the interpolated non-linear four-parameter standard curve.
Analysis identified three mutants which no longer bind target antigen, three mutants which have reduced binding and twelve (12) mutants which retaining binding to target antigen. […] The mutant AFFIMER® clones which retained binding to PD-L1 were assessed in both a competition ELISA (as described in Example 4) and the PD1:PD-L1 blockade cell-based Promega assay (as described in Example 5).

human PD-L1 on CHO cells [4] = biological target: T1, human PD-L1 on CHO cells; assay: flow cytometry histogram, live-gated hu-PD-L1 CHO cells, Affimer at 100 nM
Procedure: Human PD-L1 CHO cells having a cell surface over expressing human PD-L1 or CHO-negative cells were plated at 50,000 cells per well in a round bottom tissue culture plate. AFFIMER® clones were titrated from 700 nM or monoclonal antibody (mAb) controls titrated from 10 nM in cell staining buffer (PBS, 1% BSA+2 mM EDTA+0.05% Sodium Azide buffer) and incubated for 1 hour. After two washes with staining buffer, AFFIMER® polypeptides were detected with an anti-cystatin antibody. After a further two washes, AF488-conjugated anti-goat antibody (to detect AFFIMER® polypeptides) or AF488-conjugated anti human IgG1 antibody (to detect mAb controls) were incubated for 40 minutes followed by an additional wash step. Viability dye (Zombie Aqua reagent, Biolegend) was added and the plates were incubated for 10 min. After a final wash, cells were fixed and the data acquired using a multiparameter flow cytometer (Guava 12HT, Luminex Corp).

[5] = biological target: T2, human PD-L1-Fc (R&D Systems); assay: PD-1/PD-L1 competition ELISA, % inhibition: Affimer pre-incubated with huPD-L1-Fc, then loaded on plate-coated human PD-1-Fc (blocked ligand)
Procedure: as §1, with “curve. […]” for “curve.”

[6] = biological target: T2, human PD-L1-Fc (R&D Systems); assay: SPR (Biacore T200): human PD-L1-Fc amine-coupled on a CM5 chip, Affimer monomer titrated as analyte (500 s association, 1000 s dissociation), 1:1 Langmuir fit
Procedure: BIACORE™ T200 binding kinetic analysis was performed on monomer AFFIMER® clones with running buffer HBS-EP+ (Cytiva) and a series S sensor CM5 chip immobilized with human PD-L1-Fc (R&D Systems) in 10 mM Sodium acetate pH4.0 μsing amine coupling reagents (Cytiva). A concentration titration of AFFIMER® monomer was run as analyte with an association time of 150 seconds, followed by a dissociation time of 300 seconds at a flow rate of 30 μl/min. For Clone 80, the association time was increased to 500 seconds and 1000 seconds dissociation time. The human PD-L1-Fc immobilized surface was regenerated with 3-3.5 mM NaOH solution (Cytiva) for 20-30 seconds at 20 μl/min flow rate. The kinetic data was blank subtracted and fit to a 1:1 Langmuir binding model (BIAcore evaluation software; Cytiva) to calculate an apparent KD value.

[7] = biological target: T2, human PD-L1-Fc (R&D Systems); assay: PD-L1/PD-1 competition ELISA, % inhibition: Affimer pre-incubated with huPD-L1-Fc, then loaded on plate-coated human PD-1-Fc (blocked ligand). Column head on the sheet reads 'EC50nM'; the text calls these values IC50
Procedure: as §1

[8] = biological target: T2, human PD-L1-Fc (R&D Systems); assay: SPR (Biacore); huPD-L1-Fc captured on Protein A chip, Affimer as analyte 0.125 to 2 nM; monomer, huPD-L1-Fc captured on Protein A chip
Procedure: (§2) Secreted AFFIMER® clones were purified from supernatant using Ni Sepharose Excel resin (Cytiva) as described in Example 2 and run-on SEC-HPLC to assess their purity and molecular weight (FIG. 11). BIACORE™ was run using a sensor chip Protein A (Cytiva) capturing huPD-L1-Fc (R&D System), and AFFIMER® clones were run in solution as analyte increasing from 0.125 to 2 nM titration and a dissociation time of 2000 seconds. Regeneration of the antigen captured on the chip was performed using a 10 mM glycine pH1.5 solution. […] Avidity was further shown in both the PD-L1 binding ELISA and the Promega cell-based assay, with the ILF dimer blocking the PD-L1:PD1 interaction more strongly than a mammalian produced monomer (FIGS. 13-14).

[9] = biological target: T2, human PD-L1-Fc (R&D Systems); assay: SPR (Biacore): huPD-L1-Fc captured on a Protein A sensor chip, HEK-expressed Affimer as analyte rising from 0.125 to 2 nM, 2000 s dissociation
Procedure: as §2

[10] = biological target: T2, human PD-L1-Fc (R&D Systems); assay: PD-L1 binding ELISA (direct binding, absorbance 450nm - 630nm rises with the Affimer concentration). Column head on the sheet reads 'IC50 nM' although the curve is a half-maximal binding curve; the text does not name the PD-L1 reagent on the plate
human PD-L1 on CHO cells [11] = biological target: T1, human PD-L1 on CHO cells; assay: cell-based or functional assay; remark: listed apart in the source
[12] = biological target: T2, human PD-L1-Fc (R&D Systems); assay: SPR (Biacore 8K), binding to PD-L1-Fc
human PD-L1 on CHO cells [13] = biological target: T1, human PD-L1 on CHO cells; assay: cell-based or functional assay; remark: listed apart in the source
human PD-L1 on CHO cells [14] = biological target: T1, human PD-L1 on CHO cells; assay: cell-based or functional assay; remark: listed apart in the source
human PD-L1 on CHO cells [15] = biological target: T1, human PD-L1 on CHO cells; assay: cell-based or functional assay; remark: listed apart in the source
human PD-L1 on CHO cells [16] = biological target: T1, human PD-L1 on CHO cells; assay: cell-based or functional assay; remark: listed apart in the source
[17] = biological target: T2, human PD-L1-Fc (R&D Systems); assay: SPR (Biacore); huPD-L1-Fc captured on Protein A chip, Affimer as analyte 0.125 to 2 nM; ILF homodimer (avidity), huPD-L1-Fc captured on Protein A chip
Procedure: as §2

T2 sequence (Q9NZQ7 19-239 limits assumed): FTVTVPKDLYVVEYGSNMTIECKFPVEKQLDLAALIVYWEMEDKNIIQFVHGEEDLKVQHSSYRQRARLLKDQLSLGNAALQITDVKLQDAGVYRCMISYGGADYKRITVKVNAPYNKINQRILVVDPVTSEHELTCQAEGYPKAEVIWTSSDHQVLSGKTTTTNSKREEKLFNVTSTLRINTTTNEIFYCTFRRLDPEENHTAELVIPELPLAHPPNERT
T1 sequence (Q9NZQ7 19-290): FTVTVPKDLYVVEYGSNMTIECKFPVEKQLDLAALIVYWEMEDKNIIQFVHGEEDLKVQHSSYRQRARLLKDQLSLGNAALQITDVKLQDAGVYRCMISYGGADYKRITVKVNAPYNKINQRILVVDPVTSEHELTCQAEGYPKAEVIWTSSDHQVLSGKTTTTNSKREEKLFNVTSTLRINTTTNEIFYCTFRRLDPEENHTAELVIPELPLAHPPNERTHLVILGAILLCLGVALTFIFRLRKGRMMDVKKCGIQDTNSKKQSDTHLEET

B1: Clone 80 (designed binder)
chain: MIPGGLSEAKPATPEIQEIVDKVKPQLEEKTGETYGKLEAVQYKTQVVRRKHFPQWPGTNYYIKVRAGDNKYMHLKVFKSLDLQPREVFQEDLVLTGYQVDKNKDDELTGF
notes: type III Affimer monomer made in E. coli; His-tagged; also called Clone 80 parent control molecule
For B1, the “IC50, PD-1/PD-L1 blockade Bioassay (Promega)” value (human PD-L1 on CHO cells [1]) was 30 nM, the “EC50 (read off the curve); Promega PD-1/PD-L1 blockade bioassay, fold of induction” value (shortened to “EC50 (read off the curve) … fold of induction”) (human PD-L1 on CHO cells [2]) was about 80 nM and the IC50 [3] was 2.6 nM. The “% (cells in the positive gate)” value (human PD-L1 on CHO cells [4]) was 98.9%, the MFI (human PD-L1 on CHO cells [4]) was 1330 MFI and the IC50 [5] was 0.19 nM. It also gave a Kd [6] of 0.568 nM, a koff [6] of 0.00163 s⁻¹ and a kon [6] of 2.88e+06 M⁻¹ s⁻¹. For the same binder, the EC50 [7] was 0.538 nM.

B2: Clone 80 monomer (mammalian, HEK-expressed) (designed binder)
chain: B1 chain
notes: also called mammalian produced monomer; mammalian expressed AFFIMER Clone 80 monomer
With B2 the Kd [8] was 0.54 nM, the koff [9] was 0.0014 s⁻¹ and the kon [9] was 2.58e+06 M⁻¹ s⁻¹. For the same binder, the IC50 [10] was 0.26 nM.

B3: Clone 80 K51A (designed binder)
chain: B1 chain with K51A
notes: alanine mutant of Clone 80 made in E. coli
For B3, the “EC50 (read off the curve) … fold of induction” value (human PD-L1 on CHO cells [11]) was about 200 nM, the Kd [12] was 0.66 nM and the IC50 [3] was 3.35 nM.

B4: Clone 80 V88A (designed binder)
chain: B1 chain with V88A
notes: as for B3
In the case of B4, the “EC50 (read off the curve) … fold of induction” value (human PD-L1 on CHO cells [13]) is reported as about 100 nM, the Kd [12] is reported as 1.96 nM and the IC50 [3] is reported as 2.56 nM.

B5: Clone 80 R86A (designed binder)
chain: B1 chain with R86A
notes: as for B3
For B5, the “EC50 (read off the curve) … fold of induction” value (human PD-L1 on CHO cells [14]) was about 70 nM, the Kd [12] was 4.02 nM and the IC50 [3] was 2.33 nM.

B6: Clone 80 E87A (designed binder)
chain: B1 chain with E87A
notes: as for B3
With B6 the “EC50 (read off the curve) … fold of induction” value (human PD-L1 on CHO cells [15]) was about 100 nM, the Kd [12] was 0.61 nM and the IC50 [3] was 3.83 nM.

B7: Clone 80 Q90A (designed binder)
chain: B1 chain with Q90A
notes: as for B3
B7 was tested, and the “EC50 (read off the curve) … fold of induction” value (human PD-L1 on CHO cells [16]) was about 100 nM, the Kd [12] was 0.97 nM and the IC50 [3] was 2.23 nM.

B8: Clone 80 ILF (designed binder)
chain: MIPGGLSEAKPATPEIQEIVDKVKPQLEEKTGETYGKLEAVQYKTQVVRRKHFPQWPGTNYYIKVRAGDNKYMHLKVFKSLDLQPREVFQEDLVLTGYQVDKNKDDELTGFAEAAAKEAAAKEAAAKEAAAKEAAAKEAAAKMIPGGLSEAKPATPEIQEIVDKVKPQLEEKTGETYGKLEAVQYKTQVVRRKHFPQWPGTNYYIKVRAGDNKYMHLKVFKSLDLQPREVFQEDLVLTGYQVDKNKDDELTGF
notes: Two Clone 80 units in one chain joined by the rigid linker A(EAAAK)6; also called in-line fusion (ILF) homodimer; Dimer ILF format
Work on B8 yielded a Kd [17] of 0.0103 nM, a koff [9] of 4.56e-05 s⁻¹ and a kon [9] of 4.44e+06 M⁻¹ s⁻¹. The IC50 [10] was 0.05 nM.
